From IntAct's records for PubMed 17339482

B1: Complement factor H (Homo sapiens), P08603 (parent)
chain: MRLLAKIICLMLWAICVAEDCNELPPRRNTEILTGSWSDQTYPEGTQAIYKCRPGYRSLGNVIMVCRKGEWVALNPLRKCQKRPCGHPGDTPFGTFTLTGGNVFEYGVKAVYTCNEGYQLLGEINYRECDTDGWTNDIPICEVVKCLPVTAPENGKIVSSAMEPDREYHFGQAVRFVCNSGYKIEGDEEMHCSDDGFWSKEKPKCVEISCKSPDVINGSPISQKIIYKENERFQYKCNMGYEYSERGDAVCTESGWRPLPSCEEKSCDNPYIPNGDYSPLRIKHRTGDEITYQCRNGFYPATRGNTAKCTSTGWIPAPRCTLKPCDYPDIKHGGLYHENMRRPYFPVAVGKYYSYYCDEHFETPSGSYWDHIHCTQDGWSPAVPCLRKCYFPYLENGYNQNYGRKFVQGKSIDVACHPGYALPKAQTTVTCMENGWSPTPRCIRVKTCSKSSIDIENGFISESQYTYALKEKAKYQCKLGYVTADGETSGSITCGKDGWSAQPTCIKSCDIPVFMNARTKNDFTWFKLNDTLDYECHDGYESNTGSTTGSIVCGYNGWSDLPICYERECELPKIDVHLVPDRKKDQYKVGEVLKFSCKPGFTIVGPNSVQCYHFGLSPDLPICKEQVQSCGPPPELLNGNVKEKTKEEYGHSEVVEYYCNPRFLMKGPNKIQCVDGEWTTLPVCIVEESTCGDIPELEHGWAQLSSPPYYYGDSVEFNCSESFTMIGHRSITCIHGVWTQLPQCVAIDKLKKCKSSNLIILEEHLKNKKEFDHNSNIRYRCRGKEGWIHTVCINGRWDPEVNCSMAQIQLCPPPPQIPNSHNMTTTLNYRDGEKVSVLCQENYLIQEGEEITCKDGRWQSIPLCVEKIPCSQPPQIEHGTINSSRSSQESYAHGTKLSYTCEGGFRISEENETTCYMGKWSSPPQCEGLPCKSPPEISHGVVAHMSDSYQYGEEVTYKCFEGFGIDGPAIAKCLGEKWSHPPSCIKTDCLSLPSFENAIPMGEKKDVYKAGEQVTYTCATYYKMDGASNVTCINSRWTGRPTCRDTSCVNPPTVQNAYIVSRQMSKYPSGERVRYQCRSPYEMFGDEEVMCLNGNWTEPPQCKDSTGKCGPPPPIDNGDITSFPLSVYAPASSVEYQCQNLYQLEGNKRITCRNGQWSEPPKCLHPCVISREIMENYNIALRWTAKQKLYSRTGESVEFVCKRGYRLSSRSHTLRTTCWDGKLEYPTCAKR
partner: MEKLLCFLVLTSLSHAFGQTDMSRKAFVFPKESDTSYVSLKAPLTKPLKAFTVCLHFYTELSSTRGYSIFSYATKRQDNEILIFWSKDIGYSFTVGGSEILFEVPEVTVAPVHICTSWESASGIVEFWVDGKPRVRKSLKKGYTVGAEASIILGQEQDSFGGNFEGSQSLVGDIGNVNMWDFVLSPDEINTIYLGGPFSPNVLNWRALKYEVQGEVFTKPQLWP

Variants of: B1
Settings: with crp_human CRP

effect of a mutation on the interaction	Variant
decreasing interaction strength	Y402H
